Tests used:
[1] = target: T1, ILT4 on CHO-ILT4 cells (Manufacturer: Kang Yuan Bochuang, Cat: KC-1473) (UniProt Q8N423 22-597, limits assumed); assay: flow cytometry on CHO-ILT4 cells, 7-point 5-fold titration, anti-VHH PE detection
T1 construct: whole, on cells; also called ILT4 cell line

[2] = target: T2, Human LILRB2/CD85d/ILT4 Protein, His Tag (Manufacturer: KACTUS, Cat: LIL-HM4B2) (human, UniProt Q8N423 22-460, limits assumed); assay: BLI (ForteBio, AHC biosensors), ILT4 His protein loaded as written, antibody at 100 nM, 180 s association, 200 s dissociation; non-humanized antibody of the invention
T2 construct: Bought recombinant protein; not shown: His tag
T2 sequence (Q8N423 22-460 limits assumed): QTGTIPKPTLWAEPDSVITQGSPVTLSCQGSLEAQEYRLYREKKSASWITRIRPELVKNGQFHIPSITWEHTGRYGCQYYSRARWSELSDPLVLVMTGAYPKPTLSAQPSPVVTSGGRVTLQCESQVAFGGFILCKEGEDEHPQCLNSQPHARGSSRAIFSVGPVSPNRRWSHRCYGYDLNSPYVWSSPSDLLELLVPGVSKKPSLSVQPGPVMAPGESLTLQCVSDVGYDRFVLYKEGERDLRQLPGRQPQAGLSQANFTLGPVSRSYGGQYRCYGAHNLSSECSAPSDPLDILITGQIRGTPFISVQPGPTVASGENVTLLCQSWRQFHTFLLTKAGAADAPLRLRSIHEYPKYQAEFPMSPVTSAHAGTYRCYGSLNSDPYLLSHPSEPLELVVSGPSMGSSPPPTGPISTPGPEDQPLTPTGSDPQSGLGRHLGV
Method: AHC Biosensors (Manufacturer: ForteBio. Inc., Cat: 18-5060) were pre-wetted for 20 min using PBST buffer and added to Human LILRB2/CD85d/ILT4 Protein, His Tag (Manufacturer: KATUS, Cat: LIL-HM4B2) protein diluted to 20 μg/mL using PBST to a target protein loading thickness of 1 nm. The antibody of the present invention and the antibody (humanized antibody) of the present invention (VHH and Fc sequences were SEQ ID NO: 6 and SEQ ID NO: 7, respectively) was diluted to 100 nM using PBST and added to the above sensor, and bound for 180 s and dissociated for 200 s.

T1 sequence (Q8N423 22-597 limits assumed): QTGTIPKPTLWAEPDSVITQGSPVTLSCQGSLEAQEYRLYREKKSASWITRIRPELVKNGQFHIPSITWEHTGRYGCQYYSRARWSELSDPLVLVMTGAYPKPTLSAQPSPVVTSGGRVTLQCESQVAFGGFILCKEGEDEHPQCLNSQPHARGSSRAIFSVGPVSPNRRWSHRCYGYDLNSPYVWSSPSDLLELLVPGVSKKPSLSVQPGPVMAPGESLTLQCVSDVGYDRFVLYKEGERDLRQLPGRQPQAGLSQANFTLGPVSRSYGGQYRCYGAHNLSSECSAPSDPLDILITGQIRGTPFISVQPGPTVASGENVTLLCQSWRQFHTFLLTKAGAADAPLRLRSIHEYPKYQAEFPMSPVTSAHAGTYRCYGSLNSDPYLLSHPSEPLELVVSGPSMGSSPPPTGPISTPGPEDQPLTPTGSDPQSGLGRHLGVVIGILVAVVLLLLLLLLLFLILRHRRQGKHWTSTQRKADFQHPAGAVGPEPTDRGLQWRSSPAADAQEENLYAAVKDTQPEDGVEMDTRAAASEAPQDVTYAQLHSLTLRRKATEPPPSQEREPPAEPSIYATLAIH

EC50 [1]: 0.36 µg/mL
Kd [2]: 0.107 nM
B1: the antibody of the present invention (anti-ILT4 single-domain antibody, alpaca VHH, SEQ ID NO: 4) (VHH)
VHH: EVQLVESGGGLGQAGGSLRLSCVVSGRTFSRYAMGWFRQAPGKEREFVAAISWSPGDITTYADSVRGRFTISRDNAKNTVYLQMNSLKPEDTAVYYCAADPTAWGTQYDYWGQGTQVTVSS
notes: VHH screened from an alpaca immune library
